The values below come from patent US20190284272A1 (published 2019).

T1: canine IL-31 protein (Canine_IL31)
T1 chain: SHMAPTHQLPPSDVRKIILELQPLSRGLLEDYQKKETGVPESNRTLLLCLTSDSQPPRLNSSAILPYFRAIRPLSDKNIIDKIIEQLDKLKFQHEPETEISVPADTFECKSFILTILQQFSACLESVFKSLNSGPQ

T2: canine IL-31 protein (Canine_IL31) (canine)
T2 construct: Recombinant, secreted from CHO cells; also called cIL-31; canine cytokine
T2 chain: T1 chain

B1: Feline 15H05 1.1 FW1_2 (antibody, V domains shown)
VH: QVLLVQSGAEVRTPGASVKIFCKASGYSFTSYTIHWLRQAPAQGLEWMGNINPTSGYTENNQRFKDRLTLTADTSTNTAYMELSSLRSADTAMYYCARWGFKYDGEWSFDVWGAGTTVTVSS
VL: DIQMNQSPSSLSASLGDTITVTCRASQGISIWLSWYQQKPGNIPKVLINKASNLHIGVPSRFSGSGSGTDFTLTISSLEPEDAATYYCLQSQTYPLTFGGGTKLEIK
B2: Feline 15H05 1.3 (antibody, V domains shown)
VH: B1 VH
VL: EVVLTQSSAFLSRTLKEKATITCRASQGISIWLSWYQQKPNQAPKLLVKKASNLHIGAPSRFSGSGSGTDFTLTISSPEPEDAATYYCLQSQTYPLTFGGGTKLGDQ
B3: Feline 15H05 1.1 (antibody, V domains shown)
VH: B1 VH
VL: B1 VL with D1E, N5T, L15P, T18R, I19V, V21I, N42K, I43V, V46L, N49Y
B4: Feline 15H05 VH1 mouse VL (antibody, V domains shown)
VH: B1 VH
VL: B1 VL with S60P, D70H, S76T, E79Q, A83I, K107N
B5: Feline 15H05 1.1 FW1 (antibody, V domains shown)
VH: B1 VH
VL: B1 VL with N42K, I43V, V46L, N49Y
B6: Feline 15H05 2.1 (antibody, V domains shown)
VH: B1 VH with S28G, L37V, A40S
VL: B1 VL with D1E, N5T, L15P, T18R, I19V, V21I, N42K, I43V, V46L, N49Y
B7: Feline 15H05 VH3 mouse VL (antibody, V domains shown)
VH: B1 VH with T13K, A42E
VL: B1 VL with S60P, D70H, S76T, E79Q, A83I, K107N
B8: Feline 15H05 1.1 FW3 (antibody, V domains shown)
VH: B1 VH
VL: EIQMTQSPSSLSASPGDRVTITCRASQGISIWLSWYQQKPGKVPKLLIYKASNLHIGVPPRFSGSGSGTHFTLTITSLQPEDIATYYCLQSQTYPLTFGGGTKLEIK
B9: Feline 15H05 2.2 (antibody, V domains shown)
VH: B1 VH with S28G, L37V, A40S
VL: EITMTQSPGSLAGSPGQQVTMNCRASQGISIWLSWYQQKPGQHPKLLIYKASNLHIGVPDRFSGSGSGTDFTLTISNLQAEDVASYYCLQSQTYPLTFGGGTKLEIK
B10: Feline 15H05 VH2 mouse VL (antibody, V domains shown)
VH: B1 VH with S28G, L37V, A40S
VL: B1 VL with S60P, D70H, S76T, E79Q, A83I, K107N
B11: Feline 15H05 1.1 FW2_3 (antibody, V domains shown)
VH: B1 VH
VL: B8 VL with K42N, V43I, L46V, Y49N
B12: Feline 15H05 3.1 (antibody, V domains shown)
VH: B1 VH with T13K, A42E
VL: B8 VL with P60S, H70D, T76S, Q79E, I83A
B13: Feline 15H05 1.1 FW2 (antibody, V domains shown)
VH: B1 VH
VL: B1 VL with D1E, N5T, L15P, T18R, I19V, V21I
B14: Feline 15H05 3.2 (antibody, V domains shown)
VH: B1 VH with T13K, A42E
VL: B9 VL
B15: Feline 15H05 1.2 (antibody, V domains shown)
VH: B1 VH
VL: B9 VL
B16: Feline 15H05 1.1 FW1_3 (antibody, V domains shown)
VH: B1 VH
VL: B8 VL with E1D, T5N, P15L, R18T, V19I, I21V
B17: mouse anti IL-31 antibody 15H05 (antibody, mouse IgG1, kappa)
heavy: QVQLQQSAAELARPGASVKMSCKTSGYTFTSYTIHWIKQRPGQGLEWIGNINPTSGYTENNQRFKDKTTLTVDRSSNTAYLQLHSLTSEDSAVYFCARWGFKYDGEWSFDVWGAGTTVTVSSKTTPPSVYPLAPGSAAQTNSMVTLGCLVKGYFPEPVTVTWNSGSLSSGVHTFPAVLESDLYTLSSSVTVPSSPRPSETVTCNVAHPASSTKVDKKIVPRDCGCKPCICTVPEVSSVFIFPPKPKDVLTITLTPKVTCVVVDISKDDPEVQFSWFVDDVEVHTAQTQPREEQFNSTFRSVSELPIMHQDWLNGKEFKCRVNSAAFPAPIEKTISKTKGRPKAPQVYTIPPPKEQMAKDKVSLTCMITDFFPEDITVEWQWNGQPAENYKNTQPIMNTNGSYFVYSKLNVQKSNWEAGNTFTCSVLHEGLHNHHTEKSLSHSPGK
light: DIQMNQSPSSLSASLGDTITVTCRASQGISIWLSWYQQKPGNIPKVLINKASNLHIGVPPRFSGSGSGTHFTLTITSLQPEDIATYYCLQSQTYPLTFGGGTKLEINADAAPTVSIFPPSSEQLTSGGASVVCFLNNFYPKDINVKWKIDGSERQNGVLNSWTDQDSKDSTYSMSSTLTLTKDEYERHNSYTCEATHKTSTSPIVKSFNRNEC
notes: Mouse hybridoma antibody, mouse IgG1 heavy and mouse kappa light constant regions; also called Mu-15H05; MU-15H05
B18: Feline_11E12 1.1_K46Q (antibody, V domains shown)
VH: QVLLVQSGAEVKKPGASVKIFCKASGYSFTYYDINWLRQAPEQGLEWMGWIFPGDGGTKYNETFKGRLTLTADTSTNTVYMELSSLRSADTAMYYCARGGTSVIRDAMDYWGQGALVTVSS
VL: EIQMTQSPSSLSASPGDRVTITCRASESVDNYGISFMHWYQQKPGQVPKLLIYRASNLESGVPSRFSGSGSGTDFTLTISSLEPEDAATYYCQQSNKDPLTFGQGT
B19: Feline 11E12 1.1 FW2 (antibody, V domains shown)
VH: B18 VH
VL: B18 VL with V47P
B20: Feline 11E12 1.1 (antibody, V domains shown)
VH: B18 VH
VL: B18 VL with Q46K
B21: ZTS-361 (antibody)
heavy: QVLLVQSGAEVRTPGASVKIFCKASGYSFTSYTIHWLRQAPAQGLEWMGNINPTSGYTENNQRFKDRLTLTADTSTNTAYMELSSLRSADTAMYYCARWGFKYDGEWSFDVWGAGTTVTVSSASTTAPSVFPLAPSCGTTSGATVALACLVLGYFPEPVTVSWNSGALTSGVHTFPAVLQASGLYSLSSMVTVPSSRWLSDTFTCNVAHPPSNTKVDKTVRKTDHPPGPKPCDCPKCPPPEAAGAPSIFIFPPKPKDTLSISRTPEVTCLVVDLGPDDSDVQITWFVDNTQVYTAKTSPREEQFNSTYRVVSVLPILHQDWLKGKEFKCKVNSKSLPSPIERTISKAKGQPHEPQVYVLPPAQEELSRNKVSVTCLIKSFHPPDIAVEWEITGQPEPENNYRTTPPQLDSDGTYFVYSKLSVDRSHWQRGNTYTCSVSHEALHSHHTQKSLTQSPGK
light: EIQMTQSPSSLSASPGDRVTITCRASQGISIWLSWYQQKPGNIPKVLINKASNLHIGVPSRFSGSGSGTDFTLTISSLEPEDAATYYCLQSQTYPLTFGGGTKLEIKRSDAQPSVFLFQPSLDELHTGSASIVCILNDFYPKEVNVKWKVDGVVQNKGIQESTTEQNSKDSTYSLSSTLTMSSTEYQSHEKFSCEVTHKSLASTLVKSFQRSECQRE
notes: Felinized 15H05 1.1 FW2, effector-null feline heavy constant region
B22: ZTS-1505 (antibody)
heavy: B21 heavy
light: EIQMTQSPSSLSASPGDRVTITCRASQGISIWLSWYQQKPGNIPKVLINKASNLHIGVPSRFSGSGSGTDFTLTISSLEPEDAATYYCLQSQTYPLTFGGGTKLEIKRSDAQPSVFLFQPSLDELHTGSASIVCILNDFYPKEVNVKWKVDGVVQNKGIQESTTEQNSKDSTYSLSSTLTMSSTEYQSHEKFSCEVTHKSLASTLVKSFQRSEC
notes: also called ZT-1 505

Substitutions are numbered along the chain they refer to.

The first test deals with T1, canine IL-31 protein (Canine_IL31). Nature of the test: Biacore.
Molecule B1 returned a Kd of 0.263 nM. Same read-out and setting: with B2 the figure was 6.38 nM. The same measure, in the same setting: the value for B3 was 0.00504 nM; that for B4 was 0.00246 nM; that for B5 was 813 nM. The same measure, in the same setting: the value for B6 was 1.65 nM; that for B7 was 0.00264 nM.

On to B8, for which binding was characterised by a dissociation constant (Kd) of 0.13 nM. Still for that read-out and setting: with B9 the figure was 0.393 nM. The same measure, in the same setting: with B10 the figure was 2.22 nM; with B11, 214 nM. Same read-out and setting: the value for B12 was 0.795 nM; that for B13 was 0.000431 nM. B14 gave a Kd of 0.204 nM. Same read-out and setting: the value for B15 was 3.48 nM.

As for B16, the Kd was 0.00436 nM. The same measure, in the same setting: with B17 the figure was 0.00487 nM; with B18, 1.91 nM. In the case of B19, the Kd was 7.02 nM. Still for that read-out and setting: the value for B20 was 0.764 nM.

Another test addresses T2, canine IL-31 protein (Canine_IL31). The experiment in a line: SPR (Biacore), IL-31 protein as surface. On the procedure: The affinity with which candidate mAbs bind canine and feline IL-31 was determined using surface plasmon resonance (SPR) on a Biacore system (Biocore Life Sciences (GE Healthcare), Uppsala, Sweden). To avoid affinity differences associated with differential surface preparation that can occur when immobilizing antibodies to surfaces; a strategy was employed where IL-31 was directly conjugated to the surface. Immobilization was obtained by amine coupling 5 μg/mL IL-31 using N-hydroxysuccinimide (NHS)/1-Ethyl-3-(3-dimethylaminopropyl) carbodiimide (EDC) chemistry. Chips were quenched with ethanolamine and the affinity with which all candidate mAbs bound to the immobilized IL-31 was evaluated. All curves were fit to a 1:1 model. […] Results for affinity measurements are described herein.
Table 1 below describes the results for biacore analysis using multiple species of IL-31 protein as a surface capture.
With B17, the affinity, expressed as Kd, was 0.00191 nM.

Turning to B21, binding was characterised by a dissociation constant (Kd) of 0.00241 nM. On the same count and under the same terms, with B22 the figure was 0.00183 nM.

A further test has the same target. Nature of the test: cell-based or functional assay.
As for B17, the “Inhibition of IL-31 induced pSTAT3 IC50 (µg/ml), Canine IL-31 on Canine DH82 cells” value was 11.2 µg/ml. On the same count and under the same terms, the value for B21 was 23 µg/ml; that for B22 was 21.8 µg/ml.
